From patent publication US20210087291A1 (Hoffmann-La Roche, published 2021)

Columns and labels:
[1] = target: T1, cynomolgus FolR1 ECD-AcTev-Fcknob-Avi tag + Fc hole, biotinylated monomeric Fc fusion (cynomolgus, UniProt P0DOX5 223-449 = IgG part); assay: SPR, apparent KD, bivalent binding (avidity)
T1 construct: also called cyFolR1; cyno FolR1-Fc
Protocol: (§1) Binding of FolR1 binders as IgG or in the T-cell bispecific format to different recombinant folate receptors (human FolR1, 2 and 3, murine FolR1 and cynomolgus FolR1; all as Fc fusions) was assessed by surface plasmon resonance (SPR).
Recombinant biotinylated monomeric Fc fusions of human, cynomolgus and murine Folate Receptor 1 (FolR1-Fc) were directly coupled on a SA chip using the standard coupling instruction (Biacore, Freiburg/Germany). The immobilization level was about 300-400 RU. The anti-FolR1 IgGs or T cell bispecifics were passed at a concentration range from 2.1 to 500 nM with a flow of 30 μL/minutes through the flow cells over 180 seconds. The dissociation was monitored for 600 seconds. Bulk refractive index differences were corrected for by subtracting the response obtained on reference flow cell immobilized with recombinant biotinylated IL2 receptor Fc fusion. […] The binding curves resulting from the bivalent binding of the IgGs or T cell bispecifics were approximated to a 1:1 Langmuir binding and fitted with that model (which is not correct, but gives an idea of the avidity). The apparent avidity constants for the interactions were derived from the rate constants of the fitting using the Bia Evaluation software (GE Healthcare).

[2] = target: T1, cynomolgus FolR1 ECD-AcTev-Fcknob-Avi …; assay: SPR, monovalent, antibody captured by anti-Fab
Protocol: as §1
For affinity measurement, direct coupling of around 6000-7000 resonance units (RU) of the anti-human Fab specific antibody (Fab capture kit, GE Healthcare) was performed on a CM5 chip at pH5.0 using the standard amine coupling kit (GE Healthcare). Anti-FolR1 IgGs or T cell bispecifics were captured at 20 nM with a flow rate of 10 μl/min for 20 or 40 sec, the reference flow cell was left without capture. […] The dissociation phase was monitored for 240 sand triggered by switching from the sample solution to HBS-EP. The chip surface was regenerated after every cycle using a double injection of 60 sec 10 mM Glycine-HCl pH 2.1 or pH1.5. Bulk refractive index differences were corrected for by subtracting the response obtained on the reference flow cell 1. The affinity constants for the interactions were derived from the rate constants by fitting to a 1:1 Langmuir binding using the Bia Evaluation software (GE Healthcare).

[3] = target: T2, human TIM-3 on cells (human, UniProt Q8TDQ0 22-301); assay: cell-based or functional assay
[4] = target: T2, human TIM-3 on cells; assay: cell-based or functional assay; remark: listed apart in the source
[5] = target: T2, human TIM-3 on cells; assay: cell-based or functional assay; remark: listed apart in the source
[6] = target: T3, Tim3-ECD-His-Biotin (human, UniProt Q8TDQ0 22-202); assay: ELISA on Tim3-ECD-His-Biotin
T3 construct: also called human Tim3 (ELISA); Biochem Human
Protocol: After washing (3×90 μl/well with PBST-buffer) 25 μl aTim3 samples or diluted (1:2 steps) reference antibody aTim3 F38-2E2 (Biolegend) was added and incubated 1 h at RT. After washing (3×90 μl/well with PBST-buffer) 25 μl/well sheep-anti-mouse-POD (GE NA9310V) was added in 1:9000 dilution and incubated at RT for 1 h while shaking at 400 rpm rotation. After washing (4×90 μl/well with PBST-buffer) 25 μl/well TMB substrate (Calbiochem, #CL07) was added and incubated until OD 1.5-2.5. Then the reaction was stopped by addition of 25 μl/well 1N HCL-solution.

[7] = target: T4, monomeric human Tim3-ECD (human, UniProt Q8TDQ0 22-202); assay: SPR Biacore, monovalent Tim3
T4 construct: also called huTim3
Protocol: (§2) Therefore, an anti-mouse IgG was immobilized by amine coupling to the surface of a (Biacore) CM5 sensor chip. The samples were then captured and hu/cy Tim3-ECD was bound to them. The sensor chip surface was regenerated after each analysis cycle. The equilibrium constant KD was finally gained by fitting the data to a 1:1 langmuir interaction model.
(§3) Flow cell temperature was set to 25° C. and sample compartment temperature to 12° C. The system was primed with running buffer. The samples were injected for 30 seconds with a concentration of 200 μg/ml and bound to the spots 1 and 5 of each flow cell, allowing the measurement of eight samples in parallel. Then a complete set of different (monomeric cyno, monomeric human and huFc fused dimeric human Tim3-ECD) concentrations (s. Table X) was injected over each sample for 240 s followed by a dissociation time of 30/1800 s (s. Table 1). Each analysis cycle (sample capture, spot 1 and 5—Tim3 ECD injection) was then regenerated with a 30 seconds long injection of Glycine-HCl pH 1.7. The flow rate was set to 30 μl/min for the whole run. Finally, the double referenced data was fitted to a 1:1 langmuir interaction model with the Biacore B4000 Evaluation Software.

[8] = target: T2, human TIM-3 on cells; assay: cell-based or functional assay; remark: listed apart in the source
[9] = target: T5, cynomolgus TIM-3 on isolated cyno CD14+ monocytes (cynomolgus); assay: flow cytometry, cyno CD14+ monocytes cyno1
T5 construct: whole, on cells
Description: (§4) CD14+ Monocytes were isolated from cynomolgus monkey anticoagulated peripheral blood (Covance) by density gradient centrifugation using Ficoll-Paque (GE Healthcare) (see General Protocols in the User Manuals or visit www.miltenyibiotec.com/protocols) and subsequent positive selection via NHP CD14 MicroBeads. First the CD14+ cells are magnetically labeled with CD14 MicroBeads. Then the cell suspension is loaded onto a MACS® Column which is placed in the magnetic field of a MACS Separator. The magnetically labeled CD14+ cells are retained in the column. The unlabeled cells run through, this cell fraction is depleted of CD14+ cells. After removal of the column from the magnetic field, the magnetically retained CD14+ cells can be eluted as the positively selected cell fraction. After centrifugation at 200×g for 10 min at room temperature the monocytes were harvested and used directly in binding assay or resuspended in freezing medium (10% DMSO, 90% FCS) at 1.0E+07 cells/ml and stored in liquid nitrogen.
(§5) 1×10⁵ CD14+ isolated cyno monocytes (50 μl/well) were put into 98 well-v bottom MTP in fresh culture medium and incubated with Redimune® NF Liquid for 15 min at RT to block unspecific binding. Than 50 μl/well of Alexa488 labeled anti-TIM3 (10 μg/ml in cell culture medium) were added and incubated for 1 h at 4° C. After washing and centrifugation MFI signals of stained cells were analyzed by BD Biosciences FACSCanto flow cytometer.

[10] = target: T2, human TIM-3 on cells; assay: flow cytometry, human CD14+ monocytes donor3
Description: (§6) CD14+ Monocytes were isolated from anticoagulated peripheral blood of healthy donors by density gradient centrifugation using Ficoll-Paque (GE Healthcare) (see General Protocols in the User Manuals or visit www.miltenyibiotec.com/protocols) and subsequent positive selection via CD14 MicroBeads. First the CD14+ cells are magnetically labeled with CD14 MicroBeads. Then the cell suspension is loaded onto a MACS® Column which is placed in the magnetic field of a MACS Separator. The magnetically labeled CD14+ cells are retained in the column. The unlabeled cells run through, this cell fraction is depleted of CD14+ cells. After removal of the column from the magnetic field, the magnetically retained CD14+ cells can be eluted as the positively selected cell fraction. After centrifugation at 200×g for 10 min at room temperature the monocytes were harvested and used directly in binding assay or resuspended in freezing medium (10% DMSO, 90% FCS) at 1.0E+07 cells/ml and stored in liquid nitrogen.
(§7) 1×10⁵ CD14+ isolated human monocytes (50 μl/well) were put into 98 well-v bottom MTP in fresh culture medium and incubated with Redimune® NF Liquid for 15 min at RT to block unspecific binding. […] After washing and centrifugation MFI signals of stained cells were analyzed by BD Biosciences FACSCanto flow cytometer.

[11] = target: T2, human TIM-3 on cells; assay: cell-based or functional assay; remark: listed apart in the source
[12] = target: T2, human TIM-3 on cells; assay: flow cytometry, human CD14+ monocytes donor2
Description: as §6, §7

[13] = target: T6, huFc fused dimeric human Tim3-ECD (human, UniProt Q8TDQ0 22-202); assay: SPR Biacore, bivalent Tim3
T6 construct: also called huTim3Fc; bivalent Tim3
Protocol: as §2, §3

[14] = target: T6, huFc fused dimeric human Tim3-ECD; assay: SPR Biacore, antibody captured by anti-mouse IgG
Protocol: as §2, §3

[15] = target: T4, monomeric human Tim3-ECD; assay: SPR Biacore, antibody captured by anti-mouse IgG
Protocol: as §2, §3

[16] = target: T2, human TIM-3 on cells; assay: cell ELISA, CHO-K1 expressing human Tim3
Protocol: Then the reaction was stopped by addition of 25 μl/well 1N HCL-solution.

[17] = target: T5, cynomolgus TIM-3 on isolated cyno CD14+ …; assay: flow cytometry, cyno CD14+ monocytes cyno2
Description: as §4, §5

[18] = target: T5, cynomolgus TIM-3 on isolated cyno CD14+ …; assay: flow cytometry, cyno CD14+ monocytes cyno3
[19] = target: T2, human TIM-3 on cells; assay: flow cytometry, human CD14+ monocytes donor1
Description: as §6, §7

[20] = target: human FolR2 on transiently transfected HEK cells (human, UniProt P14207 17-230); assay: flow cytometry on HEK cells transiently transfected with human FolR2, anti-human secondary antibody; concentration not given
[21] = target: T7, murine FolR1 ECD-AcTev-Fcknob-Avitag + Fc hole, biotinylated monomeric Fc fusion (murine, UniProt P0DOX5 223-449 = IgG part); assay: SPR, IgG single injection
T7 construct: also called muFolR1; murine FolR1-Fc

Sequence of human FolR2 on transiently transfected HEK cells (P14207 17-230 limits assumed): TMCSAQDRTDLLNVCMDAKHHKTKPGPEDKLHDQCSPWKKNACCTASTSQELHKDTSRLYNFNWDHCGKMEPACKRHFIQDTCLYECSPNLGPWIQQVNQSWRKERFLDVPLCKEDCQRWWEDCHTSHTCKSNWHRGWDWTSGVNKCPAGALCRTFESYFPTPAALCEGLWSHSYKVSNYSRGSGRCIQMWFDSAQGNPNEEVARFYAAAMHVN

B1: Farletuzumab (antibody, V domains shown)
VH: EVQLVESGGGVVQPGRSLRLSCSASGFTFSGYGLSWVRQAPGKGLEWVAMISSGGSYTYYADSVKGRFAISRDNAKNTLFLQMDSLRPEDTGVYFCARHGDDPAWFAYWGQGTPVTVSS
VL: DIQLTQSPSSLSASVGDRVTITCSVSSSISSNNLHWYQQKPGKAPKPWIYGTSNLASGVPSRFSGSGSGTDYTFTISSLQPEDIATYYCQQWSSYPYMYTFGQGTKVEIKR
Kd [1]: 0.65 nM
Kd [2]: 67.3 nM

B2: Tim3_0022 Fab-PE24 construct (Fab, V domains shown)
VH: EVQLQESGPSLVKPSQTLSLTCSVTGDSIASAYWNWIRKFPGNKLEYMGYINYSGSTYYNPSLKSRISITRDTSQNQYYLQLNSVTTEDTATYYCVTGDYFDYWGRGTTLTVSS
VL: DIQMTQSPSSLSAYLGGKVTITCKARQDVRKNIGWYQHKPGKGPRLLIWYTSTLQSGIPSRFSGSGSGRDYSFNINNLEPEDIATYYCLQYDNLPFTFGTGTKLEIR
IC50 cytotoxicity, CMK [3]: 255 nM
IC50 cytotoxicity, Karpas-299 [3]: 10 nM
IC50 cytotoxicity, MOLM-13 [3]: 579 nM
IC50 cytotoxicity, TF-1 [3]: 299 nM
IC50 cytotoxicity, primary AML CD34+ PB0135 [4]: > 691 nM
IC50 cytotoxicity, primary AML CD34+ PB0136 [4]: > 691 nM

B3: Tim3_0021 Fab-PE24 construct (Fab, V domains shown)
VH: QVQLQQSGPQLVRPGASVQISCKASGYSFTSYLLHWLKQRPGQGLEWIGMIDPSDSETRLNQKFKDKATLTVDKSSSTAYMQLSSPTSEDSAVYYCARDGYYAWYYFDCWGQGTTLTVSS
VL: DIVLTQSPATLSVTPGDRVSLSCRASQSIGNNLHWYQQKSHESPRLLIKYASHSISGIPSKFSGTGSGTDFTLSFNSVETEDFGMYFCQQSNSWPLTFGAGTKLELK
Max. killing, Pfeiffer cells [5]: 98.4%

B4: Tim3_0021 (antibody, V domains shown)
VH: QVQLQQSGPQLVRPGASVQISCKASGYSFTSYLLHWLKQRPGQGLEWIGMIDPSDSETRLNQKFKDKATLTVDKSSSTAYMQLSSPTSEDSAVYYCARDGYYAWYYFDCWGQGTTLTVSS
VL: DIVLTQSPATLSVTPGDRVSLSCRASQSIGNNLHWYQQKSHESPRLLIKYASHSISGIPSKFSGTGSGTDFTLSFNSVETEDFGMYFCQQSNSWPLTFGAGTKLELK
EC50 [6]: 0.047 µg/mL
Kd [7]: 204 nM
internalization at 30 Min, RPMI-8226 [8]: 70%
internalization at 60 Min, RPMI-8226 [8]: 75%
internalization at 120 Min, RPMI-8226 [8]: 74%
internalization at 240 Min, RPMI-8226 [8]: 78%
internalization at 26 h, RPMI-8226 [8]: 77%
MFI [9]: 348 MFI
specific binding MFI [10]: 1200 MFI
IFN-gamma release in MLR at 1 µg/ml, % of IL-2 control [11]: 101%
IFN-gamma release in MLR at 10 µg/ml, % of IL-2 control [11]: 108%
IFN-gamma release in MLR at 40 µg/ml, % of IL-2 control [11]: 112%
specific binding MFI [12]: 951 MFI
Kd [13]: 4.1 nM
Kd [14]: 4.07 nM
Kd [15]: 204 nM
EC50 [16]: 0.073 µg/mL
MFI [17]: 473 MFI
MFI [18]: 399 MFI
specific binding MFI [19]: 1130 MFI

B5: Tim3_0033 Fab-PE24 construct (Fab, V domains shown)
VH: QGQMHQSGAELVKPGSSVKLSCKTSGFTFSSSFISWLKQKPGQSLEWIAWIYAATGSTSYNQKFTNKAQLTVDTSSSAAYMQFSSLTTEDSAIYYCARHAGYPHYYAMDYWGQGTSVTVSS
VL: DIQMTQSPASLSASVGETVTITCRASENIFSNLAWYQQKQGKSPQLLVYSATNLGDGVPSRFSGSGSGTQFSLKINSLQPEDFGNYYCQHFYKIPFTFGTGTKLEIK
Max. killing, Pfeiffer cells [5]: 99.8%
Max. killing, RPMI-8226 cells [5]: 99.7%

B6: Tim3_0033 (antibody, V domains shown)
VH: QGQMHQSGAELVKPGSSVKLSCKTSGFTFSSSFISWLKQKPGQSLEWIAWIYAATGSTSYNQKFTNKAQLTVDTSSSAAYMQFSSLTTEDSAIYYCARHAGYPHYYAMDYWGQGTSVTVSS
VL: DIQMTQSPASLSASVGETVTITCRASENIFSNLAWYQQKQGKSPQLLVYSATNLGDGVPSRFSGSGSGTQFSLKINSLQPEDFGNYYCQHFYKIPFTFGTGTKLEIK
EC50 [6]: 1.32 µg/mL
internalization at 30 Min, RPMI-8226 [8]: 75%
internalization at 60 Min, RPMI-8226 [8]: 81%
internalization at 120 Min, RPMI-8226 [8]: 82%
internalization at 240 Min, RPMI-8226 [8]: 82%
internalization at 26 h, RPMI-8226 [8]: 80%
MFI [9]: 71 MFI
specific binding MFI [10]: 595 MFI
IFN-gamma release in MLR at 1 µg/ml, % of IL-2 control [11]: 0%
IFN-gamma release in MLR at 10 µg/ml, % of IL-2 control [11]: 30%
IFN-gamma release in MLR at 40 µg/ml, % of IL-2 control [11]: 35%
specific binding MFI [12]: 328 MFI
Kd [13]: 3.1 nM
Kd [14]: 3.05 nM
EC50 [16]: 3.71 µg/mL
MFI [17]: 81 MFI
MFI [18]: 83 MFI
specific binding MFI [19]: 480 MFI

B7: 5D9 IgG (antibody, V domains shown)
VH: QVQLVQSGAEVKKPGASVKVSCKASGYTFTSYYMHWVRQAPGQGLEWMGIINPSGGSTSYAQKFQGRVTMTRDTSTSTVYMELSSLRSEDTAVYYCARSYIDMDYWGQGTLVTVSS
VL: EIVLTQSPGTLSLSPGERATLSCRASQSVSSSYLAWYQQKPGQAPRLLIYGASSRATGIPDRFSGSGSGTDFTLTISRLEPEDFAVYYCQQDNWSPTFGQGTKVEIK
notes: human IgG1
binding result [20]: binds
binding result [21]: no binding (tested: 500 nM)

B8: Tim3_0016 Fab-PE24 construct (Fab, V domains shown)
VH: QVTLKESGPGILQPSQTLRLTCSFSGFSLSTSGMSVGWIRQPSGKGLEWLAHIWLNDDVFFNPALKSRLTISKDTSNNQVFLQIASVVTADTATYYCVRANGYLYALDYWGQGTSVTVSS
VL: QIVLTQSPAIMSASPGQKVTITCSASSSVNYTQWYQQKLGSSPKLWIYDAFKLAPGVPARFSGSGTGTSYSLTISSMEAEDAASYFCHQWSSYPWTFGGGTKLEIK
IC50 cytotoxicity, CMK [3]: 225 nM
IC50 cytotoxicity, Karpas-299 [3]: 4 nM
IC50 cytotoxicity, MOLM-13 [3]: 459 nM
IC50 cytotoxicity, TF-1 [3]: 534 nM
IC50 cytotoxicity, primary AML CD34+ PB0135 [4]: > 691 nM
IC50 cytotoxicity, primary AML CD34+ PB0136 [4]: > 691 nM

B9: 11F8 IgG (antibody, V domains shown)
VH: QVQLVQSGAEVKKPGSSVKVSCKASGGTFSSYAISWVRQAPGQGLEWMGGIIPIFGTANYAQKFQGRVTITADKSTSTAYMELSSLRSEDTAVYYCARAVFYRAWYSFDYWGQGTTVTVSS
VL: DIQMTQSPSTLSASVGDRVTITCRASQSISSWLAWYQQKPGKAPKLLIYDASSLESGVPSRFSGSGSGTEFTLTISSLQPDDFATYYCQQYTSPPPTFGQGTKVEIK
notes: human IgG1
binding result [20]: binds
